Assay: soluble on expression in E. coli; label from the status in PepcDB or PDB records

Sequence | soluble on expression in E. coli
MARGCDLCFPGRKAVVFVTGLCDDSCFYCPVSRAKLGRDVFYVNEVPVASVEEAVAEVLRTGASGASLTGGDPLVALHRTLDVARALKSELGRGFHIHLYTSGRRMTPEVARALWEAGVDEVRIHPTERSLLSRVGMVKRYTGMSVGVEMPIAPGLEELAIEAVKTVEAVGGDFVNLNEMEIVEPNARALLARGYTESGERPFTVRGALEAVLRVLEWAAENSSVPVHFCPASFKDSIQTGNRLRSSAARDAYWYEEPTPHGTLTWGEVRGGSPPPGLGEERGGRIMLPPRADLLETVVRMYGGEAYIVEAHPTPSRTPIVSERRIA | not soluble
MARKRRAARVKDKWTLKKWFTLIAPEYFGMAELGETPADDASKVVGRTVETTLAELTNDYSNQNTYKKLIFKVYRVAGDNAYTKFWRFELTREYLNSLTRRRTSKIEDIVDVTTADGYKLRVKSVVFTVRRCKTSQKRAIRAIMRQIVVEKASSLNFVQFLQECVLGKVPAEIYKNAKKIYPIRRVEIRKIELLAEPAEAETQPAVAEAVALEHHHHHH | soluble
MARLNITFSPQAFEDYKYFQQNDKKMVKKINELLKSIDRNGALEGIGKPEKLKSNLTGYYSRRINHEHRLVYTVDDNHIKIASCKYHY | not soluble
MARVAIVGTGPTGIYTFFNLIQTDPSHHITLFERGEKAGIGLPYSPEAASKSMLANIASIEIPPIEATYLDWLKGQPDAKLRAYGLDRAELDDRQFTPRLLLGEYFRDQLLSLLDRHRARTEVLETTEVTDVIARNDALFLRAAEREFGPFDRVILATGHVFPDADEATRSYFPSPWSGLIQAEVPPVSVGIMGTSLSSIDAAMAVANQHGRFRRHGEELTFEPATEGLHLTLMSWSGVLPEADFWCPIPYEPLQVMTDDAVAQCAAQADPLDRVFALLQEEIAQADPAYADRIGLATLTADTFGDAYFAAREAQDPFRWARRNLEEVEHNKAHQITVPWRYALLRMHEKVETLVPHLGDADRKRFDGGLKKVFVDNYAAVPSESIRRLLALRDAGLLSVLALGEDYELKREPDRTVIHAKGKTHVFPVFIDARGQKPMESRDMPFPSLRRALMGSKQDIPELDADFALVGVPDYDRHAHLAAIPYLMHDRPFVQGITASAEIGATIARGISQAVGDRAAQGGRRSSAPVVATGLEHHHHHH | soluble
MASAQPLTALPAIPLPGDAGPVDELAAVIALLQTQPADSTGAATDLAARASALVGAPVTVLDERSGVLAGDPTRVAGQVAAPDGSVALGWGPAADDAERWRPLLTQACVWLSMIRRLDGAPAVEPESVAVREVVQQLLSVRDVDQVLTSIAERTLRLLDADICGVMLREGERVCMRACVGNRVAQTARLRMRRGQGLAGLVFDIGRPAKVDTYLEDRTISPDFMSLAEQEETRSALAVPLRLHGELIGVLEVWRRRPSTFTEHDEHRMVVLADIATVAIDNARLHDEQAASTVEAERARDELQQQVAMLNGSSRLQQKLLTTVIEGGGLPAVVHAVAIELGCEVGVFGPDGAMIATHTPGSTPASLPARLPVRARPATPGRWVRPVYADGDQVGQVVLIQGEASAELMDAVAGQVAMACSLALLRERAASRARAQAVDQVLWDLLQGPVQHRVAARSRAQQLGISLLGSLRVLHGQIENVEELAAEQGWDTSHTDKVRRGVLRAVRGVDEARRLPLTGMRGDLLVAVAADLDRASVKDLAAATCAAIHAEWPGLRLTWGVSRERANPMELPNALSEAETALAAARRLGGRNALLYEELGIVRLLLGSGNDPDLQTFIEEVTGPLIAYDRDNDGALIRTLRAFFDADCSQRVAAERLFVHHKTLRYRLERIRQLTGLDLSRHEDRMRADFALRLLQVNQTSDAIGD | not soluble
MASDENIGADGEQKPSRPFLRKGQGTARFRMPRNNKTSAGAPPTSELSSASSPSINVPRFSLSNALPNSARTVDSGISNEDETRPPTTASLPMDQPSLSSSPENRLNPAPSVAEEHGHSGQHAEEEEDNDTDEVSAMPSFVPDEPSTLVNSDHELSDDALKYKNAAAEFKAFERRMDSMRSASTITTSLATPSSCAPSNSSEPPTRSTPIMNDLGVGPNNHNWPSSMQELSGISLETPQARPLGSNRINQLVRSEAQTGISLLQHHERPTVTAPLRRNDMMNSSRQNPQNGNVQDENRPEHVYDQPIHVPGSSLDRQKLEIEIRRHRNLNIQLRDTIAHLDYAEESVHTTKRQLEEKISEVNNFKKELIEEFKKCKKGVEEEFEKKFEKIKEDYDELYEKLKRDQRDLERDQKILKKGTGERNKEFTETIATLRDKLRASETKNAQYRQDIRVRDEKLKKKDEEIEKLQKDGNRLKSTLQTLEKRVKQLRTEKERDDKEKEMFAKVAMNRKTSNPVPPVLNQSVPISITSNGPSRHPSSSSLTTFRKPSTSNRERGVSWADEPNEQSLEAVPQEFLMMPVKEMPGKFGKCTIYRDSLGETSKVTDTIANGLLFEYSNGDLRWVNRQNAVNIYISAVDKTVRIDLPTYNISIIHTFQRQVEVLRPGNNITLISIKRREVRTDLIYQNGMYKTEIFNRDGRYVTKDFSNQEVSRKYNPGTHTYRDNQCRYVLVTDYNDFELVEPEFRLRWYQGDPTGLNNQYILKIIGRPECSEKTLRLEVNLSTCEGTLETAEMIGDKRRKTTLFQWKK | not soluble
MASDYEAVNTNPYGVSDGELGPLKYGARFMNMQQRVIPIGSPSLTTGPGNDLQNTDLISSGNYIGYFGNNNNWGFNNEANWNFTDSRMNYAYQNFYSQIFLPWNEIYEIAKDSDSPSEQAILEIANIVRNIAWLRATDVFGPIAYNSAGDGSIAPKFDSQEVVYRSMLADLSKSVELLNTISYSVMAQYDLIYNGNVQNWVKLANSLMLRIVVRVHFIDETLAKEYITKALDPKNGGVIEDISSEAKIKSSDKMPLLNSMLASVNEYNETRMGATIWGYLDGYKDPRLSAYFTEGTYGSGSWAQTGYFPVAPTNSKSKSETSYSAKFASRPKVDSNSPLYWFRASETYFLKAEAALYNLIGGDPKTFYEQGINISFQEQGVSGVATYLSGTGKPTGLTGSNYKYGTYNHDLSIGNTSPKWDDYTGNLSKQEEQLQKIITQKYLALYPNAVEAWTEYRRTGFPYLMKPMDEAAPGRIGASIEDCRVPERFRFAPTAYNSNPNMAEIPTLLGGGDIGATKLWWVRSNRPKQPNQ | soluble
MASEVRIKLLLECTECKRRNYATEKNKRNTPNKLELRKYCPWCRKHTVHREVKI | soluble
MASGIRCFRLLHPAFRSYHAALTRPVSEVSMKTVSGRQHGHRQYSAYPAVPVRHFATKKAKAKGKGQPQARVTVNRALVEDIISLEEVDEDMKSVVEALKDNFNKTLNIRTAPGSLDHITVVTADGKVALNQIGQISMKSPQVILVNMASFPECTAAAIKAIRESGMNLNPEVEGTLIRVPIPKVTREHREMLVKLAKQNTNKAKENLRKVRTNAMNKLKKSKDKTSEDTIRLIEKQISQMADDTVAELDQHLAAKTKELLG | soluble
MASIWVGHRGTVRDYPDFSPSVDAEAIQKAIRGIGTDEKMLISILTERSNAQRQLIVKEYQAAYGKELKDDLKGDLSGHFEHLMVALVTPPAVFDAKQLKKSMKGAGTNEDALIEILTTRTSRQMKDISQAYYTVYKKSLGDDISSETSGDFRKALLTLADGRRDESLKVDEHLAKQDAQILYKAGENRWGTDEDKFTEILCLRSFPQLKLTFDEYRNISQKDIVDSIKGELSGHFEDLLLAIVNCVRNTPAFLAERLHRALKGIGTDEFTLNRIMVSRSEIDLLDIRTEFKKHYGYSLYSAIKSDTSGDYEITLLKICGGDD | soluble
MASKHAAKTVDPKDLSPAWKVLQMKLNEEKAEKEKAAKAEKEANPEGSDDGFTKVQTKKQKQKMNRKRRAQEALAAASEVKRVHHDIPVVIEDSERGELTKVIAIDCEYVGAGMGGTTDILARISIVNELGKIVYDKFVKPTEKVTDFRTAVSGIRPENMIKAIPFDRAQTEVSKLIDGRIVIGHAVHNDFRVLKLNHIRKLTRDTAKCTILKNMANHHGTPSLKKLAKEVLGIEIQRGEHDSITDARVALRLYEAVKKQWEAEIKRYR | not soluble
MASLAKNLKNVTPNVRRAVVTWDKAERIQRNEEIFKNSESVVHRLPEHYKTRYWETILSDKTPVHYRPPTSRFAHDSFKNVEIELEENPIIGIRTPEGDDGLWGGERVVKGWIESAPYTKKKILPRYWVPKLFFPALKNVVLYSEILDKYIKVTVTERAMRLIDEHFGLDYYILESKEIDLDSKFANSLKREMLLTLTTESYYEENDEKKAYIKEKYADFVIPEREAEWIGLELNEAARKQQDMEDSTAPEPLKYKFEQSLLERLRDGTDEISQELENPEAPMKTESKFGDKMFGKYLNPIGKKLRSATN | not soluble
MASSAQSGGSSGGPAVPTVQRGIIKMVLSGCAIIVRGQPRGGPPPERQINLSNIRAGNLARRAAATQPDAKDTPDEPWAFPAREFLRKKLIGKEVCFTIENKTPQGREYGMIYLGKDTNGENIAESLVAEGLATRREGMRANNPEQNRLSECEEQAKAAKKGMWSEGNGSHTIRDLKYTIENPRHFVDSHHQKPVNAIIEHVRDGSVVRALLLPDYYLVTVMLSGIKCPTFRREADGSETPEPFAAEAKFFTESRLLQRDVQIILESCHNQNILGTILHPNGNITELLLKEGFARCVDWSIAVYTRGAEKLRAAERVAKERRLRIWRDYVAPTANLDQKDKQFVAKVMQVLNADAIVVKLNSGDYKTIHLSSIRPPRLEGENTQDKNKKLRPLYDIPYMFEAREFLRKKLIGKKVNVTVDYIRPASPATETVPAFSERTCATVTIGGINIAEALVSKGLATVIRYRQDDDQRSSHYDELLAAEARAIKNGKGLHSKKEVPIHRVADISGDTQKAKQFLPFLQRAGRSEAVVEYVFSGSRLKLYLPKETCLITFLLAGIECPRGARNLPGLVQEGEPFSEEATLFTKELVLQREVEVEVESMDKAGNFIGWLHIDGANLSVLLVEHALSKVHFTAERSSYYKSLLSAEEAAKQKKEKVWAHYEEQPVEEVMPVLEEKERSASYKPVFVTEITDDLHFYVQDVETGTQLEKLMENMRNDIASHPPVEGSYAPRRGEFCIAKFVDGEWYRARVEKVESPAKIHVFYIDYGNREVLPSTRLGTLSPAFSTRVLPAQATEYAFAFIQVPQDDDARTDAVDSVVRDIQNTQCLLNVEHLSAGCPHVTLQFADSKGDVGLGLVKEGLVMVEVRKEKQFQKVITEYLNAQESAKSARLNLWRYGDFRADDADEFGYSR | soluble
MASSTSLAIVLHQSSNHDELFMKQTLQFSETLKDLKNLRKQLYSAAEYFETSYGKAEHKETVIETLKEYAAKAVVNTVDHLGSVSDKFNSFLSDNSTHFSTTHLRLSSLEQRMRLCRDYMGKSGTHQHLLLFQYPRHHKRYFFPQQGRGTSFSAGDDSHRFTSAVRSTILENLPNTARKANKTGSFSFAPIVHNNINNRTPNKRSNSPMRFPLLRSGSLLKRSSSPSQPKKPPLALPEPQRAISVSRNTEIVEIKQSSSRKGKKILMFKALMSMSKSRN | soluble
MASTGLRVDLYEEHGRVGMPEHCTGIVSERTVNTIGREARETIIDSYDSLEIRFRGETLAVLDVGTVYRLDRVRLEELLLESLMSLGGRAQLGKRVHSVGIEGSVKAGGSEARYDAVILADGAHGELHRMLDLGYRGDYYYGLNILVPGKRESTILVDFILDRGLAFTWDVPTVGSVSVAGAMGTLAGVKRFFEVLKPRAFKVYGGRIPAGPPAERLRRGRVYVVGDAGGLVKPLSGGGLYPNAKAAKLAASLIKRGLDVGEALEKSLSIVSHELRAQHAVARLVYGTRVLETISRAVGGAPLRLRLDYDTHHQLVISTLSQVGALSSQRLAAAALRGGGLEAPLSLVKVLYHSSASAYKRLASGRLPGVLEHHHHHH | not soluble
MASVPENQAPKAIFTFSPEDPVTDENVVFNASNSIDEDGTIAYYVWDFGDGYEGTSTTPTITYKYKNPGTYKVKLIVTDNQGASSSFTATIKVTSATGDNSKFNFEDGTLGGFTTSGTNATGVVVNTTEKAFKGERGLKWTVTSEGEGTAELKLDGGTIVVPGTTMTFRIWIPSGAPIAAIQPYIMPHTPDWSEVLWNSTWKGYTMVKTDDWNEITLTLPEDVDPTWPQQMGIQVQTIDEGEFTIYVDAIDWLEHHHHHH | soluble

Source: the DeepSol protein solubility set
